# Assay results from paper PMC5605572, “Phosphorylation of Suppressor of Hairless impedes its DNA-binding activity”.
# Columns and labels:
# Conditions in all cases: protein: ivt; label: radiolabelled (EMSA); 5' overhang 4 nt on each strand
# Su(H) R266H = Su(H) R266H (Drosophila melanogaster, UniProt P28159 1-594, R266H); assay: EMSA; EMSA: 10 mM Tris-HCl pH 7.5, 50 mM NaCl, 1 mM EDTA, 0.0275 ug/ul salmon sperm DNA; ITC: 50 mM sodium phosphate pH 6.5, 150 mM NaCl, 10 C, 10 uM Su(H) in cell, 100 uM DNA in syringe
# Su(H) S269A = Su(H) S269A (Drosophila melanogaster, UniProt P28159 1-594, S269A); assay: EMSA; no obvious difference from wt; self-competition with unlabelled oligo; EMSA: 10 mM Tris-HCl pH 7.5, 50 mM NaCl, 1 mM EDTA, 0.0275 ug/ul salmon sperm DNA; ITC: 50 mM sodium phosphate pH 6.5, 150 mM NaCl, 10 C, 10 uM Su(H) in cell, 100 uM DNA in syringe
# Su(H) wt = Su(H) wt (Drosophila melanogaster, UniProt P28159 1-594); assay: EMSA; self-competition with unlabelled oligo; EMSA: 10 mM Tris-HCl pH 7.5, 50 mM NaCl, 1 mM EDTA, 0.0275 ug/ul salmon sperm DNA; ITC: 50 mM sodium phosphate pH 6.5, 150 mM NaCl, 10 C, 10 uM Su(H) in cell, 100 uM DNA in syringe
# Sequence of Su(H) wt (P28159 whole entry): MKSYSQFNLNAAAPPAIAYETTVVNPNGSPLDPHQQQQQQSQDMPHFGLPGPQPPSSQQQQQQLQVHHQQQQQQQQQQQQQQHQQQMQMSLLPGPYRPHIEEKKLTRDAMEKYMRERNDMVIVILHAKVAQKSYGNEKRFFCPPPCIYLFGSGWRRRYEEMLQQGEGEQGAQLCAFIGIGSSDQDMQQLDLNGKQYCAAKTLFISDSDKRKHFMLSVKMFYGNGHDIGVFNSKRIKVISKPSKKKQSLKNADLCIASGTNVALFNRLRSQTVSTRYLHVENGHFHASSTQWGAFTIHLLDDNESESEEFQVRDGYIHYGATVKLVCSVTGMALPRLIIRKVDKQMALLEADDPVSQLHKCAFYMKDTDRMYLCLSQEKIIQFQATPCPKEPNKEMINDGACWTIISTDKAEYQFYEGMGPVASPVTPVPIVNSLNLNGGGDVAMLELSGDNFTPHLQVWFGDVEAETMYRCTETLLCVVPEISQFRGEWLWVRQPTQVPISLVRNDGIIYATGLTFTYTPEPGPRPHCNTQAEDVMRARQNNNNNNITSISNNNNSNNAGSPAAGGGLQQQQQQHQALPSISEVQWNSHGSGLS
# Sequence of Su(H) R266H (P28159 whole entry R266H): as the sequence (P28159 whole entry) above, with R266H counted along it
# Sequence of Su(H) S269A (P28159 whole entry S269A): as the sequence (P28159 whole entry) above, with S269A counted along it
binder,measurement,setting,value
E(spl)m8-S1 (dsDNA) DNA 1: TTGGGTGGCTCGTGGCGTGGGAACCGAGCTGAAAG DNA 2: GGTTCTTTCAGCTCGGTTCCCACGCCACGAGCCAC,binding result,Su(H) R266H,no binding
same,binding result,Su(H) S269A,binds
same,binding result,Su(H) wt,binds
